# From patent publication US20210246166A1 (Bayer, published 2021)
# Numbered stars: 1 amine (or outer) side, 2 acyl side, 3 side chain; on linkers, the order of the positions; unused ones are H or OH. Bridge positions count the residues as written; N and C are the ends. Square brackets hold non-standard residues; d marks the D form. Ends that are not written are not given here. * marks the point of attachment. (N-Benzyl)D = (2S)-2-Amino-4-(benzylamino)-4-oxobutanecarboxylic acid, O=C(C[C@H](N[*:1])C(=O)[*:2])NCc1ccccc1; X10 = (2R)‑2‑amino‑3‑(trifluoromethylsulfanyl)propanoic acid, O=C([C@H](CSC(F)(F)F)N[*:1])[*:2]; (3-Chloro-Ph)G = 3-chlorophenylglycine, O=C([C@@H](N[*:1])c1cccc(Cl)c1)[*:2]; NH(CH2CH2O)4CH2CO = O=C(COCCOCCOCCOCCN[*:1])[*:2]; C18 diacid = O=C(O)CCCCCCCCCCCCCCCCC(=O)*; Oic = O=C(O)[C@@H]1C[C@@H]2CCCC[C@@H]2N1; tBuAla = CC(C)(C)C[C@H](N)C(=O)O; Aad = N[C@@H](CCCC(=O)O)C(=O)O; Pen = CC(C)(S)[C@H](N)C(=O)O; NMeA = CN[C@@H](C)C(=O)O; Orn = NCCC[C@H](N)C(=O)O; dβPro = D-beta-Proline; Sar = CNCC(=O)O
# T1: Recombinant human MASP1 enzyme (fragment corresponding to amino acids 297-699, C-terminal His Tag) (human, UniProt P48740 297-699)
# T1 sequence: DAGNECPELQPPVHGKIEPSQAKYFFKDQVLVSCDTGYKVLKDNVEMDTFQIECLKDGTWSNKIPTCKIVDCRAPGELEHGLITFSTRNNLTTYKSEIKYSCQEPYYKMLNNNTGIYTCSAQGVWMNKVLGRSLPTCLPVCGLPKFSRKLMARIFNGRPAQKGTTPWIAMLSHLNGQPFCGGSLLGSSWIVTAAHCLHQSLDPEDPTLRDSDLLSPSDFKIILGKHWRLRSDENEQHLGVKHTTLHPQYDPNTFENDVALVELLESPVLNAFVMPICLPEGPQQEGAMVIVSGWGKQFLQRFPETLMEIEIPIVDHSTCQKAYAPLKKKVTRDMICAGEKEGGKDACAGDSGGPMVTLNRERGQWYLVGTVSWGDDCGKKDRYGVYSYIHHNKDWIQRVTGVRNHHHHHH
# B1: (ODD)-AIC+SRSLP-(Oic)-I-(Pen)+IPD-(Orn)-OH (peptide)
# peptide: {C18 diacid}-AICSRSLP[Oic]I[Pen]IPD[Orn]-OH
# modifications: disulfide 3-11
# SMILES: CC[C@H](C)[C@H](NC(=O)[C@H](C)NC(=O)CCCCCCCCCCCCCCCCC(=O)O)C(=O)N[C@H]1CSSC(C)(C)[C@@H](C(=O)N[C@H](C(=O)N2CCC[C@H]2C(=O)N[C@@H](CC(=O)O)C(=O)N[C@@H](CCCN)C(=O)O)[C@@H](C)CC)NC(=O)[C@H]([C@@H](C)CC)NC(=O)[C@@H]2C[C@@H]3CCCC[C@@H]3N2C(=O)[C@@H]2CCCN2C(=O)[C@H](CC(C)C)NC(=O)[C@H](CO)NC(=O)[C@H](CCCNC(=N)N)NC(=O)[C@H](CO)NC1=O
# B2: AIC+SRSLPP-((3-Chloro-Ph)G)-C+IPD-OH (peptide)
# peptide: AICSRSLPP[(3-Chloro-Ph)G]CIPD-OH
# modifications: disulfide 3-11; N-terminus assumed
# SMILES: CC[C@H](C)[C@H](NC(=O)[C@H](C)N)C(=O)N[C@H]1CSSC[C@@H](C(=O)N[C@H](C(=O)N2CCC[C@H]2C(=O)N[C@@H](CC(=O)O)C(=O)O)[C@@H](C)CC)NC(=O)[C@H](c2cccc(Cl)c2)NC(=O)[C@@H]2CCCN2C(=O)[C@@H]2CCCN2C(=O)[C@H](CC(C)C)NC(=O)[C@H](CO)NC(=O)[C@H](CCCNC(=N)N)NC(=O)[C@H](CO)NC1=O
# B3: (Orn)-IC+SRS-((2R)-2-amino-3-(trifluoromethylsulfanyl)propanoic acid)-PPI-(Pen)+IPD-OH (peptide)
# peptide: [Orn]ICSRS[X10]PPI[Pen]IPD-OH
# modifications: disulfide 3-11; N-terminus assumed
# SMILES: CC[C@H](C)[C@H](NC(=O)[C@@H](N)CCCN)C(=O)N[C@H]1CSSC(C)(C)[C@@H](C(=O)N[C@H](C(=O)N2CCC[C@H]2C(=O)N[C@@H](CC(=O)O)C(=O)O)[C@@H](C)CC)NC(=O)[C@H]([C@@H](C)CC)NC(=O)[C@@H]2CCCN2C(=O)[C@@H]2CCCN2C(=O)[C@H](CSC(F)(F)F)NC(=O)[C@H](CO)NC(=O)[C@H](CCCNC(=N)N)NC(=O)[C@H](CO)NC1=O
# B4: ((N-Me)G)-IC+SRSLP-(Oic)-I-(Pen)+IP-(AAD)-OH (peptide)
# peptide: [Sar]ICSRSLP[Oic]I[Pen]IP[Aad]-OH
# modifications: disulfide 3-11; N-terminus assumed
# SMILES: CC[C@H](C)[C@H](NC(=O)CNC)C(=O)N[C@H]1CSSC(C)(C)[C@@H](C(=O)N[C@H](C(=O)N2CCC[C@H]2C(=O)N[C@@H](CCCC(=O)O)C(=O)O)[C@@H](C)CC)NC(=O)[C@H]([C@@H](C)CC)NC(=O)[C@@H]2C[C@@H]3CCCC[C@@H]3N2C(=O)[C@@H]2CCCN2C(=O)[C@H](CC(C)C)NC(=O)[C@H](CO)NC(=O)[C@H](CCCNC(=N)N)NC(=O)[C@H](CO)NC1=O
# B5: ((N-Me)G)-IC+SRS-((tBu)A)-PPI-(Pen)+IP-(PEG4-CH2CO2H(15 atoms))-OH (peptide)
# peptide: [Sar]ICSRS[tBuAla]PPI[Pen]IP[NH(CH2CH2O)4CH2CO]-OH
# modifications: disulfide 3-11; N-terminus assumed
# SMILES: CC[C@H](C)[C@H](NC(=O)CNC)C(=O)N[C@H]1CSSC(C)(C)[C@@H](C(=O)N[C@H](C(=O)N2CCC[C@H]2C(=O)NCCOCCOCCOCCOCC(=O)O)[C@@H](C)CC)NC(=O)[C@H]([C@@H](C)CC)NC(=O)[C@@H]2CCCN2C(=O)[C@@H]2CCCN2C(=O)[C@H](CC(C)(C)C)NC(=O)[C@H](CO)NC(=O)[C@H](CCCNC(=N)N)NC(=O)[C@H](CO)NC1=O
# Target: T1, Recombinant human MASP1 enzyme …
# Assay: cell-based or functional assay
row,human MASP1 IC50,Binder
1,1000 nM,B1
2,526 nM,B2
3,3.1 nM,B3
4,2.5 nM,[dβPro]ICSRS[tBuAla]PPI[Pen]IPD-OH (disulfide 3-11) [(beta-p)-IC+SRS-((tBu)A)-PPI-(Pen)+IPD-OH]
5,14 nM,"[Sar]ICSRS[2‑Amino‑5,5,5‑trifluoro‑4‑methyl‑pentanoic acid]PPI[Pen]IPD-OH (disulfide 3-11) [((N-Me)G)-IC+SRS-(2-Amino-5,5,5-trifluoro-4-methyl-pentanoic acid)-PPI-(Pen)+IPD-OH]"
6,1.7 nM,"AICSRSL[(1S,2S,5R)‑3‑Azabicyclo(3.1.0)hexane‑2‑carboxylic acid]PI[Pen]IPD-OH (disulfide 3-11) [AIC+SRSL-((1S,2S,5R)-3-Azabicyclo[3.1.0]hexane-2-carboxylic acid)-PI-(Pen)+IPD-OH]"
7,7 nM,B4
8,12 nM,[NMeA]ICSRSLP[Oic]I[Pen]IP[(N-Benzyl)D]-NH2 (disulfide 3-11) [((N-Me)A)-IC+SRSLP-(Oic)-I-(Pen)+IP-((N-Benzyl)D)-NH2]
9,6.2 nM,B5

# Target: Recombinant human MASP2 enzyme (fragment corresponding to amino acids 297-686, C-terminal His Tag) (human, UniProt O00187 297-686)
# Assay: cell-based or functional assay
# Recombinant human MASP2 enzyme (fragment corresponding to amino acids 297-686, C-terminal His Tag), sequence (O00187 other isoform, or with tags, fused parts or gaps limits assumed): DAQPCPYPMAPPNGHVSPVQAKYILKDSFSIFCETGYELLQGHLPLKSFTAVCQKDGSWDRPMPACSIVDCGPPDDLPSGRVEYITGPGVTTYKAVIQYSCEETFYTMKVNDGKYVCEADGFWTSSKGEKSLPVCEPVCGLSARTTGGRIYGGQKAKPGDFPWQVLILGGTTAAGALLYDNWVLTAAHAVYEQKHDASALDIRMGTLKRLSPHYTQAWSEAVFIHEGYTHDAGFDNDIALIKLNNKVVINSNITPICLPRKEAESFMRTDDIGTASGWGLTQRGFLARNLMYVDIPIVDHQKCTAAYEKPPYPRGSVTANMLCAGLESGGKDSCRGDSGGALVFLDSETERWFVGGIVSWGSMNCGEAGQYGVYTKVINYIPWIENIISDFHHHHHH
row,human MASP2 IC50,Binder
1,1000 nM,B1
2,1000 nM,B2
3,330 nM,"[Sar]ICSRS[2‑Amino‑5,5,5‑trifluoro‑4‑methyl‑pentanoic acid]PPI[Pen]IPD-OH (disulfide 3-11) [((N-Me)G)-IC+SRS-(2-Amino-5,5,5-trifluoro-4-methyl-pentanoic acid)-PPI-(Pen)+IPD-OH]"
4,27 nM,"AICSRSL[(1S,2S,5R)‑3‑Azabicyclo(3.1.0)hexane‑2‑carboxylic acid]PI[Pen]IPD-OH (disulfide 3-11) [AIC+SRSL-((1S,2S,5R)-3-Azabicyclo[3.1.0]hexane-2-carboxylic acid)-PI-(Pen)+IPD-OH]"
5,150 nM,B4
6,76 nM,B5
